Measured values taken from paper PMC7811519, “Unusual DNA-binding properties of the Arabidopsis thaliana WRKY50 transcription factor at target gene promoters”.
Where a chain is given by its changes, count along the chain named.

B1: S21 (CRM-ATBBE4) (dsDNA)
DNA 1: TTTATGTTTGACTTTTGTCATATAG
DNA 2: CTATATGACAAAAGTCAAACATAAA
B2: S22 (CRM2-WRKY30) (dsDNA)
DNA 1: GAGAGAGATAGTTTGACTTTTTGACTGAAGAACGA
DNA 2: TCGTTCTTCAGTCAAAAAGTCAAACTATCTCTCTC
B3: S15 (CRM-DJ1E) (dsDNA)
DNA 1: AGGACTTTTCACCAGTTGGACTTTGAAGCCACCAA
DNA 2: TTGGTGGCTTCAAAGTCCAACTGGTGAAAAGTCCT
B4: S24 (CRM1-WRKY30) (dsDNA)
DNA 1: TGGTCAGCATGTTGGACTTTCCAAATTCATTGACC
DNA 2: GGTCAATGAATTTGGAAAGTCCAACATGCTGACCA
B5: S15mut2 (dsDNA)
DNA 1: AGGACTTTTTCTTCACCAGACTTTGAAGCCACCAA
DNA 2: TTGGTGGCTTCAAAGTCTGGTGAAGAAAAAGTCCT
B6: S15mut3 (dsDNA)
DNA 1: AGGACTTTTCACCAGTTGAGTCCCAAAGCCACCAA
DNA 2: TTGGTGGCTTTGGGACTCAACTGGTGAAAAGTCCT
B7: S15mut4 (dsDNA)
DNA 1: AGGACTTTTCACCAGTTGGACTTTGGGATTGTTGG
DNA 2: CCAACAATCCCAAAGTCCAACTGGTGAAAAGTCCT
B8: S15mut13 (dsDNA)
DNA 1: AGAGTCCCCCACCAGTTGAGTCCCAAAGCCACCAA
DNA 2: TTGGTGGCTTTGGGACTCAACTGGTGGGGGACTCT
B9: S15mut1 (dsDNA)
DNA 1: AGAGTCCCCCACCAGTTGGACTTTGAAGCCACCAA
DNA 2: TTGGTGGCTTCAAAGTCCAACTGGTGGGGGACTCT
B10: S21mut1 (dsDNA)
DNA 1: TTTATGTCCAGTATTTGTCATATAG
DNA 2: CTATATGACAAATACTGGACATAAA
B11: S21mut3 (dsDNA)
DNA 1: TTTATGTCCAGTATTTACTGTATAG
DNA 2: CTATACAGTAAATACTGGACATAAA
B12: S21mut2 (dsDNA)
DNA 1: TTTATGTTTGACTTTTACTGTATAG
DNA 2: CTATACAGTAAAAGTCAAACATAAA
B13: S21mut5 (dsDNA)
DNA 1: TTTATGTTTGACTCCCGTCATATAG
DNA 2: CTATATGACGGGAGTCAAACATAAA
B14: S21mut4 (dsDNA)
DNA 1: TTTATGTTTAGTCCCTGTCATATAG
DNA 2: CTATATGACAGGGACTAAACATAAA
B15: S22mut5 (dsDNA)
DNA 1: B2 DNA 1 with T19C, T20C
DNA 2: B2 DNA 2 with A16G, A17G
B16: S22mut2 (dsDNA)
DNA 1: GAGAGAGATAGTCCAGTCTTTTGACTGAAGAACGA
DNA 2: TCGTTCTTCAGTCAAAAGACTGGACTATCTCTCTC
B17: S22mut3 (dsDNA)
DNA 1: GAGAGAGATAGTCCAGTCTTCCAGTCGAAGAACGA
DNA 2: TCGTTCTTCGACTGGAAGACTGGACTATCTCTCTC
B18: S22mut4 (dsDNA)
DNA 1: GAGAGAGATAGTTTAGTCCCCCGACTGAAGAACGA
DNA 2: TCGTTCTTCAGTCGGGGGACTAAACTATCTCTCTC
B19: S24mut2 (dsDNA)
DNA 1: TAACTGGCATGTTGGACTTTCCAAATTCACCAGTT
DNA 2: AACTGGTGAATTTGGAAAGTCCAACATGCCAGTTA
B20: S24mut8 (dsDNA)
DNA 1: TGGTCAATGCACCGGACTTTCCAAATTCATTGACC
DNA 2: GGTCAATGAATTTGGAAAGTCCGGTGCATTGACCA
B21: S24mut7 (dsDNA)
DNA 1: TAACTGGCATGTTAAGTCCCTTAAATTCACCAGTT
DNA 2: AACTGGTGAATTTAAGGGACTTAACATGCCAGTTA
B22: S24mut9 (dsDNA)
DNA 1: TGGTCAGCATGTTGGACTTTCCGGGCCTGTTGACC
DNA 2: GGTCAACAGGCCCGGAAAGTCCAACATGCTGACCA

Molecular target: WRKY50 full length (Arabidopsis thaliana Col-0, UniProt Q8VWQ5 1-173)
Assay: EMSA; EMSA with 4-5 ug recombinant protein, 32P probe, 100-fold molar excess competitor; binding buffer, salt, pH and temperature not given (cites Kanofsky et al. 2018)
Details: label: 32P end label (as probe)

WRKY50 full length, sequence (Q8VWQ5 whole entry): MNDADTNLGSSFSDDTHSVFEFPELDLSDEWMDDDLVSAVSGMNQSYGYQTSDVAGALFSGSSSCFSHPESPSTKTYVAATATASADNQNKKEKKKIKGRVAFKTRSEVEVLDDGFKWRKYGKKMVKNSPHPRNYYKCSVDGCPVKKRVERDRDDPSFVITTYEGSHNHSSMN

Binder | binding result
B1 | no binding

Molecular target: T1, WRKY50BD (Arabidopsis thaliana Col-0, UniProt Q8VWQ5 86-173)
Assay: as above
Details: tags: His tag (pQE-30, Ni purification; tag not spelled out), label: 32P end label (as probe)

T1 sequence (Q8VWQ5 86-173): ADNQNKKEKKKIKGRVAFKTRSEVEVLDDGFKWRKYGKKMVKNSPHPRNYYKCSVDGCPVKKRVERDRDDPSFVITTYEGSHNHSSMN

Binder | binding result
B1 | binds
B2 | binds
B3 | binds
B4 | binds

Molecular target: T1, WRKY50BD
Assay: competition EMSA; 100-fold excess vs S15 probe; EMSA with 4-5 ug recombinant protein, 32P probe, 100-fold molar excess competitor; binding buffer, salt, pH and temperature not given (cites Kanofsky et al. 2018)
Details: tags: His tag (pQE-30, Ni purification; tag not spelled out)

Binder | binding result
B5 | binds
B6 | binds
B7 | binds
B8 | no binding
B9 | binds

Molecular target: T1, WRKY50BD
Assay: competition EMSA; 100-fold excess vs S21 probe; EMSA with 4-5 ug recombinant protein, 32P probe, 100-fold molar excess competitor; binding buffer, salt, pH and temperature not given (cites Kanofsky et al. 2018)
Details: tags: His tag (pQE-30, Ni purification; tag not spelled out)

Binder | binding result
B10 | no binding
B11 | no binding
B12 | binds
B13 | no binding
B14 | no binding

Molecular target: T1, WRKY50BD
Assay: competition EMSA; 100-fold excess vs S22 probe; EMSA with 4-5 ug recombinant protein, 32P probe, 100-fold molar excess competitor; binding buffer, salt, pH and temperature not given (cites Kanofsky et al. 2018)
Details: tags: His tag (pQE-30, Ni purification; tag not spelled out)

Binder | binding result
B15 | no binding
B16 | no binding
B17 | no binding
B18 | no binding

Molecular target: T1, WRKY50BD
Assay: competition EMSA; 100-fold excess vs S24 probe; EMSA with 4-5 ug recombinant protein, 32P probe, 100-fold molar excess competitor; binding buffer, salt, pH and temperature not given (cites Kanofsky et al. 2018)
Details: tags: His tag (pQE-30, Ni purification; tag not spelled out)

Binder | binding result
B19 | binds
B20 | binds
B21 | no binding
B22 | binds
